Test results from patent US9309320.

Molecular target: murine CD95L, endogenous in SMA-560 tumor explants (murine) (UniProt P41047)
Assay: cell-based or functional assay

Sequence of UniProt P41047 (P41047 whole entry): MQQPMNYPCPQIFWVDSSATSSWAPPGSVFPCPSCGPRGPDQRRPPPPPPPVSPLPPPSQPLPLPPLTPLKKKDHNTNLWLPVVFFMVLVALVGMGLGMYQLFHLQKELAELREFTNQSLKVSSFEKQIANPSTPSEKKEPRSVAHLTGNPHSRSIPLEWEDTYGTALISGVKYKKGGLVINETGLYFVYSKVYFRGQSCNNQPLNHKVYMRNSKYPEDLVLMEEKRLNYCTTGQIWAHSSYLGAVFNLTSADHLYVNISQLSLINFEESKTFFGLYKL

MFL3, anti murine-CD95L neutralizing antibody
decrease in migration of cells out of SMA-560 tumor explants into collagen: 50%
